{"source": "patent US20170145391", "proteins": {"B1": {"name": "FLAG-mTORβ (protein)", "chain": "MLGTGPAAATTAATTSSNVSVLQKKVTEDLSKTLLMYTVPAVQGFFRSISLSRGNNLQDTLRVLTLWFDYGHWPDVNEALVEGVKAIQIDTWLQVIPQLIARIDTPRPLVGRLIHQLLTDIGRYHPQALIYPLTVASKSTTTARHNAANKILKNMCEHSNTLVQQAMMVSEELIRVAILWHEMWHEGLEEASRLYFGERNVKGMFEVLEPLHAMMERGPQTLKETSFNQAYGRDLMEAQEWCRKYMKSGNVKDLTQAWDLYYHVFRRISKQLPQLTSLELQYVSPKLLMCRDLELAVPGTYDPNQPIIRIQSIAPSLQVITSKQRPRKLTLMGSNGHEFVFLLKGHEDLRQDERVMQLFGLVNTLLANDPTSLRKNLSIQRYAVIPLSTNSGLIGWVPHCDTLHALIRDYREKKKILLNIEHRIMLRMAPDYDHLTLMQKVEVFEHAVNNTAGDDLAKLLWLKSPSSEVWFDRRTNYTRSLAVMSMVGYILGLGDRHPSNLMLDRLSGKILHIDFGDCFEVAMTREKFPEKIPFRLTRMLTNAMEVTGLDGNYRITCHTVMEVLREHKDSVMAVLEAFVYDPLLNWRLMDTNTKGNKRSRTRTDSYSAGQSVEILDGVELGEPAHKKTGTTVPESIHSFIGDGLVKPEALNKKAIQIINRVRDKLTGRDFSHDDTLDVPTQVELLIKQATSHENLCQCYIGWCPFW"}}, "key": {"[1]": {"molecular_target": "4E-BP1 (Calbiochem), Q13541", "sequence (Q13541 whole entry)": "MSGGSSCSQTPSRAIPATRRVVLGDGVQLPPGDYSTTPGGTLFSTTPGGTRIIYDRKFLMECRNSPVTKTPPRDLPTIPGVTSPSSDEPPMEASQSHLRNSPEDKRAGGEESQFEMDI"}, "[2]": {"molecular_target": "His-S6K1C, P23443", "sequence (P23443 332-502)": "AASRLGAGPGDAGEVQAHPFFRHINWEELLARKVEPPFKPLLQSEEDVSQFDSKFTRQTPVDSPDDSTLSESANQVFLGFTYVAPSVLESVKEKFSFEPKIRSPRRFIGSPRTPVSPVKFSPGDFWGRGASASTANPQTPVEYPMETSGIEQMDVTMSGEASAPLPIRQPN"}}, "data": [{"protein": "B1", "values": [{"measurement": "mTOR in vitro kinase assay; immunoblot with phosphospecific antibody pS65-4E-BP1", "setting": "[1]", "value": "mTORβ can phosphorylate both S6K1 and 4E-BP1 in vitro, but to a lesser extent than mTORα"}, {"measurement": "mTOR in vitro kinase assay; immunoblot with phosphospecific antibody pT389-S6K1", "setting": "[2]", "value": "mTORβ can phosphorylate both S6K1 and 4E-BP1 in vitro, but to a lesser extent than mTORα"}]}]}
